According to patent US20010052137:

Columns and labels:
[1] = tested on: T1, Myc-tagged GID-4 construct of Xaxin (amino acid residues 350-429)
T1 sequence: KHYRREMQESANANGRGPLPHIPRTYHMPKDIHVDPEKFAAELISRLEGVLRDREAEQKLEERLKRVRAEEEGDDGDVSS

[2] = tested on: T2, Myc-tagged GID-2 construct of Xaxin (amino acid residues 320-429)
T2 sequence: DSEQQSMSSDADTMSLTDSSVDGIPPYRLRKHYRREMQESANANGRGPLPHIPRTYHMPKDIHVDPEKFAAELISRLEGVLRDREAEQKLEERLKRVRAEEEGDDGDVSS

[3] = tested on: T3, Myc-tagged GID-5 construct of Xaxin (amino acid residues 380-429)
T3 sequence: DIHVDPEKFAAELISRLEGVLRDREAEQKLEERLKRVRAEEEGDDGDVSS

[4] = tested on: T4, Myc-tagged GID-3 construct of Xaxin (amino acid residues 320-375)
T4 sequence: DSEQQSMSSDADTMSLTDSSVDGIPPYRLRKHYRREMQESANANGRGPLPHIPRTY

[5] = tested on: T5, Myc-tagged GID-6 construct of Xaxin (amino acid residues 380-404)
T5 sequence: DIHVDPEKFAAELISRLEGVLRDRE

[6] = tested on: T6, GID-2/his fusion protein (Xaxin amino acid residues 320-429 with His-epitope tag, from E. coli)
T6 sequence: T2 sequence

| Substance | GSK-3 beta mediated tau phosphorylation in Xenopus oocytes [1] | GSK-3 beta mediated tau phosphorylation in Xenopus oocytes [2] | GSK-3 beta mediated tau phosphorylation in Xenopus oocytes [3] | GSK-3 beta mediated tau phosphorylation in Xenopus oocytes [4] | GSK-3 beta mediated tau phosphorylation in Xenopus oocytes [5] | GSK-3 beta mediated phosphorylation of the GS-2 peptide derived from glycogen synthase, in vitro [6] | phosphorylation of tau by GSK-3 beta, in vitro [6] |
| --- | --- | --- | --- | --- | --- | --- | --- |
| GSK-3 beta (glycogen synthase kinase-3 beta) expressed in Xenopus oocytes | bound GSK-3 beta and inhibited GSK-3 beta mediated tau phosphorylation | bound GSK-3 beta and inhibited GSK-3 beta mediated tau phosphorylation | bound GSK-3 beta and inhibited GSK-3 beta mediated tau phosphorylation | did not bind GSK-3 beta and had no effect on GSK-3 beta activity | bound GSK-3 beta and inhibited GSK-3 beta mediated tau phosphorylation | – | – |
| Recombinantly-produced GSK-3 beta protein (New England Biolabs) | – | – | – | – | – | GID-2/his exhibited no significant effect on GSK-3 beta mediated phosphorylation of the GS-2 peptide | GID-2/his also did not inhibit phosphorylation of tau by GSK-3 beta, even when GID-2/his was present at a 200-fold molar excess |
